# B1: water-soluble form of mouse DHRS9 (dehydrogenase reductase 9) lacking the N-terminal transmembrane segment (enzyme, UniProt Q58NB6 17-319, looked up)
# chain: NYKGQLKIADIADKYVFITGCDTGFGNLAARTFDKKGFRVIAACLTESGSAALKAKTSERLHTVLLDVTDPENVKKTAQWVKSHVGEKGLWGLINNAGVLGVLAPTDWLTVDDYREPIEVNLFGLINVTLNMLPLVKKARGRVINVSSIGGRLAFGGGGYTPSKYAVEGFNDSLRRDMKAFGVHVSCIEPGLFKTELADPIKTTEKKLAIWKHLSPDIKQQYGEGYIEKSLHRLKSNTSSVNLDLSLVVGCMDHALTSLFPKTRYIAGKDAKTFWIPLSHMPAVLQDFLLLKQKVELANPKAV
# notes: mouse DHRS9 lacking the first 16 amino acids that form the transmembrane segment; residues 17 to 319; cDNA made by RT-PCR from mouse skin; Crystallised in complex with NADH; In the model, residues 21-319 (chain A) and 22-319 (chain B) are seen; the tag and residues 17-20/21 could not be located; also called soluble form of DHRS9; truncated DHRS9 protein; not shown: His10, N-terminal, kept
# Target: the molecule itself
# Test: not stated; purified water-soluble DHRS9 in solution; the method is shown only in Fig. S3
protein,measurement,value
B1,stoichiometry N,2

# — publication PMC12538056, “The effects of naturally occurring mutations on functionality of oxylipin metabolizing dehydrogenase reductase nine” (The Journal of Biological Chemistry, 2025)
